Source: patent publication US20220008570A1

Biological target: human CD33 (human) (UniProt P20138)
Assay: cell-based or functional assay

Sequence of UniProt P20138 (P20138 18-364 limits assumed): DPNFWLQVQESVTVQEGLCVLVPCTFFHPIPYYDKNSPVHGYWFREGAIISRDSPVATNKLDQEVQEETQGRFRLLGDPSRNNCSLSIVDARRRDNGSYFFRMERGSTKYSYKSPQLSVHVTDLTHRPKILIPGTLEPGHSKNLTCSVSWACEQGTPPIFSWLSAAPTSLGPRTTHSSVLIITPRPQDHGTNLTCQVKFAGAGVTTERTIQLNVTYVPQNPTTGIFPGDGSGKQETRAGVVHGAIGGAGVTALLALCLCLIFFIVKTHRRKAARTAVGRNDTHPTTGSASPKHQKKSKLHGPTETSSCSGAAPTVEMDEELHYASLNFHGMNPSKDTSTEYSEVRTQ

Lintuzumab conjugated with Actinium-225 (Ac225) (antibody)
LD50 (dose at which 50% of the cells were killed), cytotoxicity on HL60 leukemia cell suspensions: 8 pCi per mL
